Assay results: publication PMC10397247

Key:
Test in all cases: two-hybrid library CCmax;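 further: natural log of median RNA to DNA barcode read ratio; higher means stronger binding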
[1] = target: T1, 4H1193-AA
T1 chain: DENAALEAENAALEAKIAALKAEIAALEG

[2] = target: T2, 4H134-AA; conditions: mean of both orientations
T2 chain: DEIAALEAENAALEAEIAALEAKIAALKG

[3] = target: T3, 4H1350-AA; conditions: mean of both orientations
T3 chain: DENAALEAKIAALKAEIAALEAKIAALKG

[4] = target: T4, 4H1385-AA; conditions: mean of both orientations
T4 chain: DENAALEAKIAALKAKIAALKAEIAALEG

[5] = target: T5, 4H1392-AA; conditions: mean of both orientations
T5 chain: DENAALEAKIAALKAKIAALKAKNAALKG

[6] = target: T6, 4H2622-AA; conditions: mean of both orientations
T6 chain: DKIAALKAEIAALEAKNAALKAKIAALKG

[7] = target: T7, 4H2705-AA; conditions: mean of both orientations
T7 chain: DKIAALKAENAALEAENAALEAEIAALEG

[8] = target: T8, 4H2736-AA; conditions: mean of both orientations
T8 chain: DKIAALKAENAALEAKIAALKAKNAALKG

[9] = target: T9, 4H2888-AA; conditions: mean of both orientations
T9 chain: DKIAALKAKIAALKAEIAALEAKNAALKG

[10] = target: T10, 4H3049-AA; conditions: mean of both orientations
T10 chain: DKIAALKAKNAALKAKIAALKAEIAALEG

[11] = target: T11, 4H337-AA; conditions: mean of both orientations
T11 chain: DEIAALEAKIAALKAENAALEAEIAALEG

[12] = target: T12, 4H3587-AA; conditions: mean of both orientations
T12 chain: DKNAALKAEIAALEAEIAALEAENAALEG

[13] = target: T13, 4H3590-AA; conditions: mean of both orientations
T13 chain: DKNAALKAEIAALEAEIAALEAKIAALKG

[14] = target: T14, 4H3625-AA; conditions: mean of both orientations
T14 chain: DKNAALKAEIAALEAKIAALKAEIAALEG

[15] = target: T15, 4H384-AA; conditions: mean of both orientations
T15 chain: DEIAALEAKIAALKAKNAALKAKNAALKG

[16] = target: T16, 4H3905-AA; conditions: mean of both orientations
T16 chain: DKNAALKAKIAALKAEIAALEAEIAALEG

[17] = target: T17, 4H4038-AA; conditions: mean of both orientations
T17 chain: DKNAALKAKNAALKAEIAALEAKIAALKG

[18] = target: T18, 4H43-AA; conditions: mean of both orientations
T18 chain: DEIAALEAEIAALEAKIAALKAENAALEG

[19] = target: T19, 4H451-AA; conditions: mean of both orientations
T19 chain: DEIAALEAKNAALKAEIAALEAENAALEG

[20] = target: T20, 4H510-AA; conditions: mean of both orientations
T20 chain: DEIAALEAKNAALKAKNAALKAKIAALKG

[21] = target: T21, 4H_APH; conditions: mean of both orientations
T21 chain: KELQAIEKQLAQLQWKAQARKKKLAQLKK

[22] = target: T22, 4H_BCR; conditions: mean of both orientations
T22 chain: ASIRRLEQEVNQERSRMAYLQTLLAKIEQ

[23] = target: 4H_GCN4
[24] = target: GCN2_T; conditions: mean of both orientations
[25] = target: T23, O11-AA; conditions: mean of both orientations
T23 chain: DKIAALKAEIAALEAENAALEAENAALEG

[26] = target: T24, O13-AA; conditions: mean of both orientations
T24 chain: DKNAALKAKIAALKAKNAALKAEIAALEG

[27] = target: T25, O14-AA; conditions: mean of both orientations
T25 chain: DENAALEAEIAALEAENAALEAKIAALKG

Sequence of 4H_GCN4 (chain, as listed by the source): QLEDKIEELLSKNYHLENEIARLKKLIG

Binder: DENAALEAENAALEAKIAALKAEIAALEG [4H1193-AA]
- interaction score [1]: -1.08
- interaction score [2]: 1.42
- interaction score [3]: 1.11
- interaction score [4]: -0.776
- interaction score [5]: -0.855
- interaction score [6]: 1.87
- interaction score [7]: -1.54
- interaction score [8]: -0.353
- interaction score [9]: 0.331
- interaction score [10]: 1.47
- interaction score [11]: -1.69
- interaction score [12]: 0.0373
- interaction score [13]: 1.11
- interaction score [14]: 0.75
- interaction score [15]: -1.19
- interaction score [16]: -0.00198
- interaction score [17]: 2.18
- interaction score [18]: -0.557
- interaction score [19]: -1.06
- interaction score [20]: -0.152
- interaction score [21]: -1.85
- interaction score [22]: -1.78
- interaction score [23]: -1.64
- interaction score [24]: -1.62
- interaction score [25]: -1.11
- interaction score [26]: -0.387
- interaction score [27]: -1.3
